Data on twelve molecules can be found in patent US9289468B2, “Fusion protein comprising circularly permuted form of trail/Apo2L, coding gene and use thereof” (Beijing Sunbio Biotech Co. Ltd., priority 2011, dated 2016).

B1: NCPT-1.M10: MG+NCPT-1+aa136-141, SEQ ID NO: 14 (protein)
chain: MGTLSSPNSKNEKALGRKINSWESSRSGHSFLSNLHLRNGELVIHEKGFYYIYSQTYFRFQEEIKENTKNDKQMVQYIYKYTSYPDPILLMKSARNSCWSKDAEYGLYSIYQGGIFELKENDRIFVSVTNEHLIDMDHEASFFGAFLVGGGGGGRVAAHITGTRGRSNTLSSPNS
modifications: NCPT-1.M10 polypeptide sequence
B2: NCPT-1.M2: MG+NCPT-1+His6, SEQ ID NO: 6 (protein)
chain: B1 chain with L170H, S171H, S172H, P173H, N174H, S175H
modifications: NCPT-1.M2 polypeptide sequence
B3: NCPT-1.M6: MG+His6+NCPT-1 with linker GGSGGGG, SEQ ID NO: 10 (protein)
chain: MGHHHHHHTLSSPNSKNEKALGRKINSWESSRSGHSFLSNLHLRNGELVIHEKGFYYIYSQTYFRFQEEIKENTKNDKQMVQYIYKYTSYPDPILLMKSARNSCWSKDAEYGLYSIYQGGIFELKENDRIFVSVTNEHLIDMDHEASFFGAFLVGGGSGGGGRVAAHITGTRGRSNT
modifications: NCPT-1.M6 polypeptide sequence
B4: NCPT-2.M11: MG+His6+NCPT-2, SEQ ID NO: 15 (protein)
chain: MGHHHHHHTLSSPNSKNEKALGRKINSWESSRSGHSFLSNLHLRNGELVIHEKGFYYIYSQTYFRFQEEIKENTKNDKQMVQYIYKYTSYPDPILLMKSARNSCWSKDAEYGLYSIYQGGIFELKENDRIFVSVTNEHLIDMDHEASFFGAFLVGGGGGGTSEETISTVQEKQQNISPLVRERGPQRVAAHITGTRGRSNT
modifications: NCPT-2.M11 polypeptide sequence
B5: NCPT-1.M3: MG+His3+NCPT-1, SEQ ID NO: 7 (protein)
chain: MGHHHTLSSPNSKNEKALGRKINSWESSRSGHSFLSNLHLRNGELVIHEKGFYYIYSQTYFRFQEEIKENTKNDKQMVQYIYKYTSYPDPILLMKSARNSCWSKDAEYGLYSIYQGGIFELKENDRIFVSVTNEHLIDMDHEASFFGAFLVGGGGGGRVAAHITGTRGRSNT
modifications: NCPT-1.M3 polypeptide sequence
B6: NCPT-3.M12: MG+His6+NCPT-3, SEQ ID NO: 16 (protein)
chain: MGHHHHHHTLSSPNSKNEKALGRKINSWESSRSGHSFLSNLHLRNGELVIHEKGFYYIYSQTYFRFQEEIKENTKNDKQMVQYIYKYTSYPDPILLMKSARNSCWSKDAEYGLYSIYQGGIFELKENDRIFVSVTNEHLIDMDHEASFFGAFLVGGGGGGVRERGPQRVAAHITGTRGRSNT
modifications: NCPT-3.M12 polypeptide sequence
B7: NCPT-1.M4: His6+NCPT-1, SEQ ID NO: 8 (protein)
chain: HHHHHHTLSSPNSKNEKALGRKINSWESSRSGHSFLSNLHLRNGELVIHEKGFYYIYSQTYFRFQEEIKENTKNDKQMVQYIYKYTSYPDPILLMKSARNSCWSKDAEYGLYSIYQGGIFELKENDRIFVSVTNEHLIDMDHEASFFGAFLVGGGGGGRVAAHITGTRGRSNT
modifications: NCPT-1.M4 polypeptide sequence
B8: NCPT-1.M8: MG+129-134+NCPT-1, SEQ ID NO: 12 (protein)
chain: MGTRGRSNTLSSPNSKNEKALGRKINSWESSRSGHSFLSNLHLRNGELVIHEKGFYYIYSQTYFRFQEEIKENTKNDKQMVQYIYKYTSYPDPILLMKSARNSCWSKDAEYGLYSIYQGGIFELKENDRIFVSVTNEHLIDMDHEASFFGAFLVGGGGGGRVAAHITGTRGRSNT
modifications: NCPT-1.M8 polypeptide sequence
B9: NCPT-1.M5: MG+His6+NCPT-1 with linker GSGGG, SEQ ID NO: 9 (protein)
chain: B8 chain with T3H, R4H, G5H, R6H, S7H, N8H, G157S
modifications: NCPT-1.M5 polypeptide sequence
B10: NCPT-1.M9: MG+Asn6+NCPT-1, SEQ ID NO: 13 (protein)
chain: B8 chain with T3N, R4N, G5N, R6N, S7N
modifications: NCPT-1.M9 polypeptide sequence
B11: NCPT-1.M7: MG+His9+NCPT-1, SEQ ID NO: 11 (protein)
chain: MGHHHHHHHHHTLSSPNSKNEKALGRKINSWESSRSGHSFLSNLHLRNGELVIHEKGFYYIYSQTYFRFQEEIKENTKNDKQMVQYIYKYTSYPDPILLMKSARNSCWSKDAEYGLYSIYQGGIFELKENDRIFVSVTNEHLIDMDHEASFFGAFLVGGGGGGRVAAHITGTRGRSNT
modifications: NCPT-1.M7 polypeptide sequence
B12: wtTRAIL: wild-type TRAIL (protein, UniProt P50591 1-281, looked up)
Tumor necrosis factor ligand …: MAMMEVQGGPSLGQTCVLIVIFTVLLQSLCVAVTYVYFTNELKQMQDKYSKSGIACFLKEDDSYWDPNDEESMNSPCWQVKWQLRQLVRKMILRTSEETISTVQEKQQNISPLVRERGPQRVAAHITGTRGRSNTLSSPNSKNEKALGRKINSWESSRSGHSFLSNLHLRNGELVIHEKGFYYIYSQTYFRFQEEIKENTKNDKQMVQYIYKYTSYPDPILLMKSARNSCWSKDAEYGLYSIYQGGIFELKENDRIFVSVTNEHLIDMDHEASFFGAFLVG

Numbering of substitutions follows the chain as printed.

The subject of the first test is NCI-H460 cells. In words: Assay of killing activity on lung cancer cell line (crystal violet, IC50). It counts as cell-based, human. The following applies: 20-24 hours, crystal violet. As for the experimental part: The NCI-H460 cells (ATCC) were cultured in flasks until logarithmic growth phase, digested with 0.25% trypsin (Amresco), collected by centrifugation (1000 rpm, 5 min), resuspended in RPMI1640 medium (Invitrogen) containing 3% fetal bovine serum (FBS), counted and adjusted to 1.5×10^5/ml cell suspension, added into 96-well culture plates (Nunc) at 100 μl/well, and incubated at 37° C. in 5% CO2 incubator overnight. The sample to be tested was diluted to a certain concentration with 1640 medium containing 3% FBS, and further diluted at 4-fold dilutions (8 dilutions). The supernatant in the culture plate was discarded, and serial dilutions of the sample to be tested was added into the plate at 100 μl/well with a negative control and blank control set aside, incubated at 37° C. under 5% CO2 for 20-24 hours. Following examination under microscope, the supernatant was discarded, each well was added 50 μl 0.05% crystal violet solution (50 mg crystal violet was dissolved in 20 ml anhydrous ethanol, and water was added to the volume of 100 ml, then stored at room temperature) and stained for 3-5 minutes. The crystal violet was carefully washed with flowing water, the remaining water was removed by spin-drying, a destaining solution (50 ml distilled water, 50 ml anhydrous ethanol, and 0.1 ml glacial acetic acid were thoroughly mixed and stored at room temperature) was added at 100 μl/well, then the reading at OD570 was measured on a microplate reader (Bio-Rad 680) (reference wavelength of 630 nm). The inhibitory concentration 50 (IC50) of each sample was calculated by a four-parameter Logistic fitting using Sigmaplot10.0 software. The IC50 for CPT and each mutant of NCPT-1, NCPT-2, and NCPT-3 were calculated, and the activity change of each mutant was represented as a ratio of the IC50 of each mutant to that of CPT (Table 1).
Turning to B1, the “Ratio of IC50 of mutants to IC50 of CPT (H460 cells)” value (from here on “Ratio of IC50 of mutants”) is 1.2.
The same measure, in the same setting: as for B2, the figure is 0.1.
Still for that read-out and setting: for B3 the value was 0.15.
With B4, the “Ratio of IC50 of mutants” value was determined as 0.47.
Still for that read-out and setting: as for B5, the figure is 0.4; as for B6, 0.38.
B7: the “Ratio of IC50 of mutants” value is listed as 0.12.
Take B8: the “Ratio of IC50 of mutants” value is listed as 1.5.
On to B9, for which the “Ratio of IC50 of mutants” value was found to be 0.15.
On the same count and under the same terms, for B10 the value was 3.0; for B11, 0.3.

Staying with this test, now noted: based on IC50.
B1: the “killing activity compared to that of CPT” value is given as “slightly decreased compared to that of CPT”.
Consider B2, for which the “killing activity compared to that of CPT” value is “significantly higher than that of CPT”.
On the same count and under the same terms, as for B3, the entry is “significantly higher than that of CPT”; as for B4, “significantly higher than that of CPT”; as for B5, “significantly higher than that of CPT”.
As to B6, the “killing activity compared to that of CPT” value is “significantly higher than that of CPT”.
In the case of B7, the “killing activity compared to that of CPT” value was “significantly higher than that of CPT”.
B8: the “killing activity compared to that of CPT” value was “significantly decreased compared to that of CPT”.
With B9, the “killing activity compared to that of CPT” value is on record as “significantly higher than that of CPT”.
Still for that read-out and setting: as for B10, the entry is “significantly decreased compared to that of CPT”; as for B11, “significantly higher than that of CPT”.

For a further test, the system named is human COLO 205 xenograft tumor. Briefly: Inhibitory activity on human colon cancer xenograft tumors. It counts as in vivo, Balb/c nu mice. The following applies: 15 mg/kg i.p. once a day for 10 days. As to the method:
4 to 5 weeks old Balb/c nu mice ♂ (Institute of Experimental Animals, Chinese Academy of Medical Sciences) were subcutaneously inoculated with COLO 205 human colon tumor tissue pieces. When the tumor grew to the volume of 120 mm3, the tumor-bearing mice were divided into 4 groups (n=7/group), which were intraperitoneally injected with normal saline (negative control group), NCPT-1.M1 5 mg/kg, NCPT-1.M1 15 mg/kg and wtTRAIL 15 mg/kg once a day for 10 consecutive days. […] During the experiment, the tumor length diameter (a) and wide diameter (b) were measured every two days with a vernier caliper, and tumor volume (TV) was calculated according to the following formula: TV=½×a×b^2; From the above, the relative tumor volume (RTV) was calculated according to following formula: RTV=Vt/V0. Wherein V0 is the tumor volume measured on the day of the administration, but before administration (i.e., d0), and Vt is the tumor volume measured every time. The relative tumor proliferation rate T/C (%) is used as an evaluation index. Evaluation criteria: T/C (%)>40% means no effect; T/C (%)≦40% and the statistical significance of P<0.05 means being effective.
T/C %=RTVT/RTVC*100%. (RTVT: RTV of the treatment group; […]: RTV of the negative control group).
Regarding B12, the “relative tumor volume RTV” value was found to be 1.58 and the “tumor proliferation rate T/C(%)” value is listed as 33.98%.

The test is the same for the next values; noted with them: 15 mg/kg i.p. once a day for 10 days; beginning.
In the case of B12, the “Tumor volume TV beginning” value is recorded as 127 ± 38.3 mm^3.

Still in this test, the particulars now being: 15 mg/kg i.p. once a day for 10 days; ending.
With B12, the “Tumor volume TV ending” value amounted to 212 mm^3.

Still in this test, the particulars now being: 15 mg/kg, COLO 205 xenograft, P<0.05.
Consider B12, for which the “efficacy compared with NCPT-1.M1” value is “significantly weaker than that of NCPT-1.M1 with the same dosage”.

The test is the same for the next values; noted with them: both dosage groups of NCPT-1.M1 (5, 15 mg/kg), wtTRAIL 15 mg/kg.
As for B12, the “evaluation of efficacy (T/C ≦40% and P<0.05 means being effective)” value was “effective”.
